Data taken from patent publication US20060148057A1 (published 2006).

T1: HA-tagged ASK1-WT (UniProt Q99683 1-1374)
T1 sequence (looked up): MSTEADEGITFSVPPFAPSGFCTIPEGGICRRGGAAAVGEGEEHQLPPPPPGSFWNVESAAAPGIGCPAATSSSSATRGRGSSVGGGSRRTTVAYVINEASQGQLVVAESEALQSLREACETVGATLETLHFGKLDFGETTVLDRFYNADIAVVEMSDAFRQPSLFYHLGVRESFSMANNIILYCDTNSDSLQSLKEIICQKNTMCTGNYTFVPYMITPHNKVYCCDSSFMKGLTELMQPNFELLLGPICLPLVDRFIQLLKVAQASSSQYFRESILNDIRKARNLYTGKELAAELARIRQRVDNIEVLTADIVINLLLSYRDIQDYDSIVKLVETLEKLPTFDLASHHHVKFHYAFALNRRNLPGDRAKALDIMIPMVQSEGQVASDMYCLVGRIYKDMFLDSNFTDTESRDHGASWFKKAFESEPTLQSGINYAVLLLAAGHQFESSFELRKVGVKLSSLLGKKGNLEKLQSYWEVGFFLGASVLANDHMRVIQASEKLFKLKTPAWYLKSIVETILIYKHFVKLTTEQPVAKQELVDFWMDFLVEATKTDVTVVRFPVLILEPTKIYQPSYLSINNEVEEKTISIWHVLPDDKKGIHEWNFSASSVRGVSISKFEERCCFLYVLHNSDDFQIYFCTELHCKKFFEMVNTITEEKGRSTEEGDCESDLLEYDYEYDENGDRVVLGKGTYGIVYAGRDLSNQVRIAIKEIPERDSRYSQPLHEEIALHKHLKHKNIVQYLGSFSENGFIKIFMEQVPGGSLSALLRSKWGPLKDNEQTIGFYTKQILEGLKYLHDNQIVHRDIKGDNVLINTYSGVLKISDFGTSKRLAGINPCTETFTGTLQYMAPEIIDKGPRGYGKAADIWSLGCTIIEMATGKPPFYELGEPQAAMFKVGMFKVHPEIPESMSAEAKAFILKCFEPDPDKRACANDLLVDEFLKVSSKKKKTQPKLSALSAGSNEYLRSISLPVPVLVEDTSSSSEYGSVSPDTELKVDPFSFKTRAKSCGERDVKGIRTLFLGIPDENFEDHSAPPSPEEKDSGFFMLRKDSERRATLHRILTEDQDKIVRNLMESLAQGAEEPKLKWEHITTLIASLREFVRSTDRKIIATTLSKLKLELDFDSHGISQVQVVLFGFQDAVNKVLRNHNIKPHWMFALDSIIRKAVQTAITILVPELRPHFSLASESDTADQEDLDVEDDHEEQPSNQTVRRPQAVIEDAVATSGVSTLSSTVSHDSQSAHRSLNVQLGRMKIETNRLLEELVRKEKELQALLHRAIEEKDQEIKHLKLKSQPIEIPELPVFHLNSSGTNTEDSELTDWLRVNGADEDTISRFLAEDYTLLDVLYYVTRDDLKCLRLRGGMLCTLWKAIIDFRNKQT


Legend:
HA-tagged ASK1-WT [1] = molecular target: T1, HA-tagged ASK1-WT; assay: cell-based or functional assay
HA-tagged ASK1-WT [2] = molecular target: T1, HA-tagged ASK1-WT; assay: GST pull-down from BAEC lysate, anti-HA Western blot
HA-tagged ASK1-WT [3] = molecular target: T1, HA-tagged ASK1-WT; assay: co-immunoprecipitation from BAEC (anti-Flag IP, anti-HA blot)

Row | Binder | inhibition of ASK1-induced caspase 3 activity (HA-tagged ASK1-WT [1]) | binding result (HA-tagged ASK1-WT [2]) | binding result (HA-tagged ASK1-WT [3]) | cell survival in ASK1-induced EC death (GFP co-transfection killing assay) (HA-tagged ASK1-WT [1])
1 | Flag-tagged Trx-WT (enzyme, not shown: small tags and cut ends) MVKQIESKTAFQEALDAAGDKLVVVDFSATWCGPCKMIKPFFHSLSEKYSNVIFLEVDVDDCQDVASECEVKCMPTFQFFKKGQKVGEFSGANKEKLEATINELV | 50% | – | – | 92%
2 | Flag-tagged Trx-C32S (enzyme, not shown: small tags and cut ends) MVKQIESKTAFQEALDAAGDKLVVVDFSATWSGPCKMIKPFFHSLSEKYSNVIFLEVDVDDCQDVASECEVKCMPTFQFFKKGQKVGEFSGANKEKLEATINELV | 48% | – | – | 80%
3 | Flag-tagged Trx-C35S (enzyme, not shown: small tags and cut ends) MVKQIESKTAFQEALDAAGDKLVVVDFSATWCGPSKMIKPFFHSLSEKYSNVIFLEVDVDDCQDVASECEVKCMPTFQFFKKGQKVGEFSGANKEKLEATINELV | 52% | – | – | 105%

Now from value to binder, other results behind:

Row | inhibition of ASK1-induced caspase 3 activity (HA-tagged ASK1-WT [1]) | binding result (HA-tagged ASK1-WT [2]) | binding result (HA-tagged ASK1-WT [3]) | Binder | cell survival in ASK1-induced EC death (GFP co-transfection killing assay) (HA-tagged ASK1-WT [1])
4 | – | no binding | – | GST-Trx-CS (enzyme, not shown: a dimerising Fc or GST; large carriers; small tags and cut ends, also called double-mutant of C32S and C35S) MVKQIESKTAFQEALDAAGDKLVVVDFSATWSGPSKMIKPFFHSLSEKYSNVIFLEVDVDDCQDVASECEVKCMPTFQFFKKGQKVGEFSGANKEKLEATINELV | –
5 | – | – | no binding | Flag-tagged Trx-CS (enzyme, Expressed by transfection in BAEC; not shown: Flag tag of the Flag-vector) MVKQIESKTAFQEALDAAGDKLVVVDFSATWSGPSKMIKPFFHSLSEKYSNVIFLEVDVDDCQDVASECEVKCMPTFQFFKKGQKVGEFSGANKEKLEATINELV | –
